Key:
[1] = target: MBP-CHMP4B_(ΔC-Alix) (human); experiment: SPR
[2] = target: T1, CHMP3 full length (residues 1-222) (human, UniProt Q9Y3E7 1-222); experiment: SPR
T1 sequence (looked up): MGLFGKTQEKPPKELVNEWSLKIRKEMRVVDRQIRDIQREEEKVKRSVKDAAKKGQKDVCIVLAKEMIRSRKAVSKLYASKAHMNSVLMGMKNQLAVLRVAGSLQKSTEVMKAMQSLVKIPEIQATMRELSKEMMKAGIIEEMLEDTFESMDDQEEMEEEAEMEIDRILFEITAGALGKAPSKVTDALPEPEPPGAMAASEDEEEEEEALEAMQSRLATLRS

[3] = target: T1, CHMP3 full length (residues 1-222); experiment: cryo-EM structure
[4] = target: CHMP2B-His6 (full length) (human, UniProt Q9UQN3 1-213); experiment: SPR
[5] = target: MBP-CHMP4B_(ΔC-Alix) (human); experiment: SPR; remark: listed apart in the source

Chain of CHMP2B-His6 (full length) (human, UniProt Q9UQN3 1-213) (Q9UQN3 whole entry): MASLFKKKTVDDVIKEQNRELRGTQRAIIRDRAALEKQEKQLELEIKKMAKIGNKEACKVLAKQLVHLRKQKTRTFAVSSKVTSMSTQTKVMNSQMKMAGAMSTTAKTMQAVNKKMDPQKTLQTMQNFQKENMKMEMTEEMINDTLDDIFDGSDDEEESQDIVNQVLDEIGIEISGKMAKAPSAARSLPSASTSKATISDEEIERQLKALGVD

## CHMP2B-His6 (full length) (from UniProt Q9UQN3 1-213) (natural protein)
[1]
  Kd: 560 nM

B1: MBP-CHMP2AΔC (residues 9-161) (domain or fragment, human, UniProt O43633 9-161, looked up)
chain: KTPEELLRQNQRALNRAMRELDRERQKLETQEKKIIADIKKMAKQGQMDAVRIMAKDLVRTRRYVRKFVLMRANIQAVSLKIQTLKSNNSMAQAMKGVTKAMGTMNRQLKLPQIQKIMMEFERQAEIMDMKEEMMNDAIDDAMGDEEDEEESD
modifications: biotin on lysines (biotin sulfo-LC-NHS, molar ratio 1:5) where it was immobilised; not biotinylated as analyte
[2]
  Kd: 3200 nM

B2: CHMP2AΔC (residues 9-161), MBP removed (domain or fragment, human, UniProt O43633 9-161, looked up)
chain: KTPEELLRQNQRALNRAMRELDRERQKLETQEKKIIADIKKMAKQGQMDAVRIMAKDLVRTRRYVRKFVLMRANIQAVSLKIQTLKSNNSMAQAMKGVTKAMGTMNRQLKLPQIQKIMMEFERQAEIMDMKEEMMNDAIDDAMGDEEDEEESD
[3]
  binding result: binds

B3: CHMP3ΔC (residues 9-183) (domain or fragment, human, UniProt Q9Y3E7 9-183, looked up)
chain: EKPPKELVNEWSLKIRKEMRVVDRQIRDIQREEEKVKRSVKDAAKKGQKDVCIVLAKEMIRSRKAVSKLYASKAHMNSVLMGMKNQLAVLRVAGSLQKSTEVMKAMQSLVKIPEIQATMRELSKEMMKAGIIEEMLEDTFESMDDQEEMEEEAEMEIDRILFEITAGALGKAPSK
[4]
  Kd: 1400 nM

B4: CHMP3 full length (residues 1-222) (natural protein)
chain: MGLFGKTQEKPPKELVNEWSLKIRKEMRVVDRQIRDIQREEEKVKRSVKDAAKKGQKDVCIVLAKEMIRSRKAVSKLYASKAHMNSVLMGMKNQLAVLRVAGSLQKSTEVMKAMQSLVKIPEIQATMRELSKEMMKAGIIEEMLEDTFESMDDQEEMEEEAEMEIDRILFEITAGALGKAPSKVTDALPEPEPPGAMAASEDEEEEEEALEAMQSRLATLRS
[5]
  KD1 (at low concentrations): 0.15 µM
